One experiment concerns the target CXCR4 on THP-1 cells (human (endogenous in THP-1)) (UniProt P61073).
CXCR4 on THP-1 cells (human (endogenous in THP-1)), sequence (P61073 whole entry): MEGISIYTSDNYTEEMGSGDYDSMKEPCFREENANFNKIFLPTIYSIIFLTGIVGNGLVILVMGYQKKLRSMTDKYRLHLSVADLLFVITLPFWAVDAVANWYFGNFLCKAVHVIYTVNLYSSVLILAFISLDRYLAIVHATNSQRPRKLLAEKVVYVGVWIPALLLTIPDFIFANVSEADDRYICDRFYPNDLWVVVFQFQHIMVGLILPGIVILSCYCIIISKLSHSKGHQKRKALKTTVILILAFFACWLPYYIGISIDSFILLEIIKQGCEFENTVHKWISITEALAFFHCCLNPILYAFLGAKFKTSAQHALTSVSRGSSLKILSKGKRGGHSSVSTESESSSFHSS
SDF-1 Arg47Ala, sequence (P48061 22-93 R68A): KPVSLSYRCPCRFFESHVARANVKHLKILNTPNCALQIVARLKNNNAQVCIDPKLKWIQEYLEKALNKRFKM
SDF-1 Arg47Glu, sequence (P48061 22-93 R68E): as the sequence (P48061 22-93 R68A) above, with A47E counted along it
SDF-1 Lys27Ala, sequence (P48061 22-93 K48A): as the sequence (P48061 22-93 R68A) above, with K27A, A47R counted along it
SDF-1 Val39Ala, sequence (P48061 22-93 V39A): as the sequence (P48061 22-93 R68A) above, with V18A, A47R counted along it
SDF-1 Lys27Glu, sequence (P48061 22-93 K48E): as the sequence (P48061 22-93 R68A) above, with K27E, A47R counted along it
SDF-1 Val49Ala, sequence (P48061 22-93 V70A): as the sequence (P48061 22-93 R68A) above, with A47R, V49A counted along it
SDF-1 Lys64Ala, sequence (P48061 22-93 K64A): as the sequence (P48061 22-93 R68A) above, with K43A, A47R counted along it
SDF-1 Glu63Ala, sequence (P48061 22-93 E84A): as the sequence (P48061 22-93 R68A) above, with A47R, E63A counted along it
SDF-1 Glu60Ala, sequence (P48061 22-93 E81A): as the sequence (P48061 22-93 R68A) above, with A47R, E60A counted along it
The substance “SDF1(L36C/A65C), covalently-locked symmetric dimer (from UniProt P48061 22-93) (ligand)” had an EC50 of Ca2+ mobilization in THP-1 cells of 12.9 nM.

A further experiment has the same target. The source holds these as a separate data set.
Substance “SDF-1 Glu63Ala (from UniProt P48061 22-93) (ligand)” registered an EC50 of Ca2+ mobilization in THP-1 cells of 3.7 nM.

On to “SDF-1 Val39Ala (from UniProt P48061 22-93) (ligand)”, for which the EC50 of Ca2+ mobilization in THP-1 cells turned out to be 27.1 nM. In turn, “SDF-1 Lys27Glu (from UniProt P48061 22-93) (ligand)” had an EC50 of Ca2+ mobilization in THP-1 cells of 16.8 nM. “SDF-1 Arg47Ala (from UniProt P48061 22-93) (ligand)” registered an EC50 of Ca2+ mobilization in THP-1 cells of 14.1 nM.

The substance “SDF1(H25R) (from UniProt P48061 22-93) (ligand)” came in with an EC50 of Ca2+ mobilization in THP-1 cells of 5.1 nM. Consider “SDF-1 Lys27Ala (from UniProt P48061 22-93) (ligand)”, for which the EC50 of Ca2+ mobilization in THP-1 cells is 10.1 nM. Substance “stromal cell derived factor-1 (SDF-1, also known as CXCL12), wild type (from UniProt P48061 22-93) (ligand)” displayed an EC50 of Ca2+ mobilization in THP-1 cells of 3.6 nM.

“SDF-1 Arg41Ala (from UniProt P48061 22-93) (ligand)”: the EC50 of Ca2+ mobilization in THP-1 cells was 4.3 nM.

In turn, “SDF-1 Arg20Ala (from UniProt P48061 22-93) (ligand)” gave an EC50 of Ca2+ mobilization in THP-1 cells of 4.3 nM.

Regarding “SDF-1 Val49Ala (from UniProt P48061 22-93) (ligand)”, the EC50 of Ca2+ mobilization in THP-1 cells amounted to 8.6 nM.

Consider “SDF-1 Lys64Ala (from UniProt P48061 22-93) (ligand)”, for which the EC50 of Ca2+ mobilization in THP-1 cells was 5 nM. On the same count and under the same terms, the figure for “SDF-1 Arg47Glu (from UniProt P48061 22-93) (ligand)” is 654 nM. For the substance “SDF-1 Glu60Ala (from UniProt P48061 22-93) (ligand)”, the EC50 of Ca2+ mobilization in THP-1 cells stood at 4.1 nM.

Source of the values: publication PMC2692298.
